Results on 2 molecules are retold here after article doi:10.64898/2025.12.15.690641.

In this data set the target is T1, CsubMADS1 (Coccomyxa subellipsoidea C-169, UniProt I0YWG3 1-102).
T1 sequence: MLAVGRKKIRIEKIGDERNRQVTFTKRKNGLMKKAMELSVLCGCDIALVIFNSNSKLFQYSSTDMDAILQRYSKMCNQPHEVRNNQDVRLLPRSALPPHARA
Kind of data set: EMSA. (In general: Mobility shift assays separate free from complexed probe on a gel.)

B1: CAB8 CArG probe (dsDNA)
DNA 1: AATTCATCGATCGTTTACTTTTTTTAGAAATATCGATCGG
DNA 2: CCGATCGATATTTCTAAAAAAAGTAAACGATCGATGAATT
As to B1, the binding result is recorded as “binds”.

B2: CAB24 CArG probe (dsDNA)
DNA 1: AATTCATCGATCGTTTACAAAAAAAAGAAATATCGATCGG
DNA 2: CCGATCGATATTTCTTTTTTTTGTAAACGATCGATGAATT
As to B2, the binding result is listed as “binds”.
